The source of these data is paper PMC9630320, “Interaction between DLC-1 and SAO-1 facilitates CED-4 translocation during apoptosis in the Caenorhabditis elegans germline” (Cell Death Discovery, 2022).

Series [1] concerns the target SAO-1C1(182-205) peptide (crystal) (C. elegans). Description: crystal structure; sitting drop vapor diffusion at 16 °C; 0.2 M potassium chloride, 0.05 M HEPES pH 7.5, 35% pentaerythritol propoxylate; 2.4 Å.
The target in series [2] is purified C-terminal region (residues 182–226) of SAO-1 (ITC) (C. elegans). Description: ITC; 25 °C; 50 mM Tris-Cl pH 7.5, 100 mM NaCl; 400 μM DLC-1 injected into 40 μM SAO-1; 13 titrations; one-site binding model. Background: ITC needs no label: the signal is the heat of the interaction.
Another series concerns the target SAO-1::RFP (C. elegans). Put plainly: FRET or BRET; fluorescence lifetime imaging (FLIM) of the GFP donor in live adult worms; TCSPC. In general terms: In BRET a luciferase serves as donor, and the signal depends on an acceptor being close.
Series [3] deals with the molecule itself. Description: crystal structure; sitting drop vapor diffusion at 16 °C; 0.2 M potassium chloride, 0.05 M HEPES pH 7.5, 35% pentaerythritol propoxylate; 2.4 Å.
Another series has as its target T1, Trx-His6-DLC-1, Q22799.
T1 chain: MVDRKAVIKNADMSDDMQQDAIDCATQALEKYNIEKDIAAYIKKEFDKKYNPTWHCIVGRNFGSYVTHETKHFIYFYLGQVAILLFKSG
Put plainly: pull-down (GST pull-down, Western blot with His antibody, band quantification). The note with it: chain shown with the change;; parent: est. 1.0; read off a plot. (Immunoblotting shows a protein as a band on a membrane.)

Changes are numbered by the printed parent chain. Names may count otherwise.

Broadly, the Kd is the free concentration of one partner at which half of the binding sites on the other are occupied at equilibrium, for simple one-to-one binding. In turn, “full-length DLC-1 (ITC and crystallography) (from UniProt Q22799 1-89) (natural protein)” had a stoichiometry N (DLC-1 per SAO-1) in series [1] of 2. In series [2], this molecule registered a dissociation constant Kd of 500 nM and a stoichiometry N (DLC-1 per SAO-1) of 2. As to “DLC-1::GFP (from UniProt Q22799 1-89) (natural protein)”, the GFP mean fluorescence lifetime (τ) with SAO-1::RFP with SAO-1::RFP (C. elegans) amounted to 2.85 ns.

B1: full-length DLC-1 (ITC and crystallography) (natural protein, C. elegans, UniProt Q22799 1-89, looked up)
chain: T1 chain
notes: dynein light chain 1 (DLC-1), C. elegans; Same construct as m1; Forms dimers in the crystal
On to B1, for which the binding result in series [3] is on record as “binds”.

B2: GST-SAO-1 V187A; T189A (protein)
chain: MHKNGNNGPVIDTKWHYLGPDSEKYGPYMSKDMLFWLQAGYFNDGLQLKTENEPNYHTLGEWSQLLGTHPFSMPVHSLDATIAQMNSMRPHGAMMMVPPGLQNQFQPPMPMRFPPFLPMPLLHQMNQNGPPMGAQMHSQPPSEPIDAGSLSHTPDSENEFQGHGRKPHHHQQILAHQHIPQMQHANAAADQVVMKSVECQTEPVEISKEQASRVLSELLGQMVIIN
B2: the ratio to parent in the series with Trx-His6-DLC-1, Q22799 was 0.57.

B3: GST-SAO-1 C199A; Q200A; T201A (protein)
chain: B2 chain with A187V, A189T, C199A, Q200A, T201A
With B3, the ratio to parent with Trx-His6-DLC-1, Q22799 is 0.15.
